{
  "source": "patent US6664231B1",
  "about": "“Anti-fungal peptides” (priority 1993, dated 2003)",
  "origin": "cited, not measured here",
  "key": {"[1]": {"test_system": "gram-negative bacteria", "conditions": "as low as; cited from earlier work"}, "[2]": {"test_system": "gram-positive organisms Staphylococcus aureus, Staphylococcus epidermidis, Streptococcus faecalis, Bacillus subtilis, Micrococcus lysodeikricus, Listeria …", "conditions": "10^−6 M or 160 μg/ml, pH 7.0 or 5.5; cited from earlier work"}, "[3]": {"test_system": "Candida albicans and Candida parapsilosis", "conditions": "10^−6 M, pH 7.0 or 5.5; cited from earlier work"}, "[4]": {"test_system": "human, rabbit and sheep red blood cells and several human tumor cell lines", "conditions": "cited from earlier work"}},
  "data": [
    {"molecule": "BPI: bactericidal/permeability-increasing protein isolated from the granules of mammalian polymorphonuclear leukocytes (protein, UniProt P17213 32-487, looked up) Bactericidal …: VNPGVVVRISQKGLDYASQQGTAALQKELKRIKIPDYSDSFKIKHLGKGHYSFYSMDIREFQLPSSQISMVPNVGLKFSISNANIKISGKWKAQKRFLKMSGNFDLSIEGMSISADLKLGSNPTSGKPTITCSSCSSHINSVHVHISKSKVGWLIQLFHKKIESALRNKMNSQVCEKVTNSVSSELQPYFQTLPVMTKIDSVAGINYGLVAPPATTAETLDVQMKGEFYSENHHNPPPFAPPVMEFPAAHDRMVYLGLSDYFFNTAGLVYQEAGVLKMTLRDDMIPKESKFRLTTKFFGTFLPEVAKKFPNMKIQIHVSASTPPHLSVQPTGLTFYPAVDVQAFAVLPNSSLASLFLIGMHTTGSMEVSAESNRLVGELKLDRLLLELKHSNIGPFPVELLQDIMNYIVPILVLPRVNEKLQKGFPLPTPARVQLYNVVLQPHQNFLLFGADVVYK", "values": [
      {"measurement": "concentration exhibiting anti-bacterial activity towards gram-negative bacteria", "setting": "[1]", "result": "10^−8 to 10^−9 M"},
      {"measurement": "toxic effect on gram-positive organisms", "setting": "[2]", "result": "no toxic effect"},
      {"measurement": "toxic effect on fungi", "setting": "[3]", "result": "no toxic effect"},
      {"measurement": "toxicity to higher eukaryotic cells", "setting": "[4]", "result": "non-toxic"}
    ]}
  ]
}
